Test results reported in patent publication US20260231954A1, “PESTICIDAL ENZYMES FOR USE ON NEMATODES, INSECTS, AND MOLLUSKS” (priority 2023, published 2026).

Experiments:
[1] = system: Fall armyworm (Spodoptera frugiperda); experiment: Diet-surface overlay (DSO) bioassay on Fall armyworm; assay type: in vivo
Description: (§1) Diet-surface overlay bioassays are conducted with artificial diet mixes without antibiotics in 1.5 cm^2 cell bioassay trays(s). Artificial diets are commercially available from Southland Products Inc. Diets were prepared by dispersing 0.5 mL of molten diet to each 1.5 cm^2 cell. After solidification, 0.1 mL enzyme treatments were dispersed on top of diet in each cell and the tray was gently rocked in an orbital shaker to spread the liquid uniformly over the diet surface. Trays were placed under clean airflow until the surface of each cell was uniformly dried. One or two 16-cell sections were used per treatment (the number in larvae treated was 16 or 32).
(§2) One healthy first instar larva was placed into each treatment cell, each 16-cell section was covered with a re-sealable lid and incubated at 27° C. and light-dark period of 16:8 hrs. After 7 days, and according to the species, the number of individuals in the following developmental categories was recorded.
(§3) Negative/untreated controls were treated with filtered water and positive controls were treated with lethal doses of Bacillus thuringiensis subsp. Kurstaki (Btk) spores at 1000 ppm.

[2] = system: soybean cyst nematode (SCN, Heterodera glycines); experiment: Soybean cyst nematode reproduction on soybean after seed treatment, controlled environment (cysts per gram of root tissue or per plant); assay type: in vivo; details: for % Comparison to Control (figure in parentheses): change vs base control
[3] = system: Btk resistant Diamondback moth; experiment: Diet-surface overlay (DSO) bioassay on Btk resistant Diamondback moth; assay type: in vivo, Plutella xylostella; details: number of individuals, n = 32, 7 days
Description: as §1, §2
Diamondback moth (Plutella xylostella): Dead Larva (lack of movement), Larva Stage I (≤50% relative size), Larva Stage II (100% relative size, full size), Early Pupa (light green color), Late Pupa (light-dark brown color), and Adult.
as §3
However, both neutral proteases reduced the number of individuals reaching adult stage.
The effect of lipase (10× enzyme rate) and free lipases were tested on a Diamondback Moth Btk resistant strain. Free Lipases from Burkholderia cepacia (Bc) and Pseudomonas fluorescens (Pf) were tested along with Lipase (SEQ ID NO: 76) and the results are shown below in Table 45.

[4] = Table 50, esterases, Fall armyworm, number of individuals of n = 32
[5] = Table 50, esterases, Fall armyworm, number of individuals of n = 32, DSO bioassay, dose per treatment in U/mL Diet
[6] = Table 48, chitinases, Fall armyworm, number of individuals of n = 32, DSO bioassay
[7] = Table 46, number of individuals, n = 32, 7 days

B1: H6-pytH (SEQ ID NO: 95): recombinant six-histidine tagged esterase pytH from Sphingobium wenxiniae (protein, listed as Sphingobium wenxiniae)
chain: MTVTDIILIHGALNRGACYDAVVPLLEARGYRVHAPDLTGHTPGDGGHLSVVDMEHYTRPVADILARAEGQSILLGHSLGGASISWLAQHHPDKVAGLIYLTAVLTAPGITPETFVLPGEPNRGTPHALDLIQPVDEGRGLQADFSRLERLREVFMGDYPGEGMPPAEQFIQTQSTVPFGTPNPMEGRALEIPRLYIEALDDVVIPIAVQRQMQKEFPGPVAVVSLPASHAPYYSMPERLAEAIADFADAPAEYRQTATKAGPDRPAGADGGRADRADLP
modifications: Esterase (pytH)
[1]; [4]
  Larva Stage I: 0
  Larva Stage II: 0
  Larva Stage III: 13
  Larva Stage IV: 19
[1]; [5]
  Dead Larva: 0

B2: Trypsin-like protease (SEQ ID NO: 126): Trichoderma lixii trypsin-like protease (protein, listed as Trichoderma lixii)
chain: AAITPRGSDIVGGTTAALGEFPYIVSLSTGGSHFCGGVLIDSRTVVTAGHCTIDQRASSVKVRAGTLTWASGGTQVGVSSLTLHPSYTVDSQGVPDNDVGVWHLATAIPTSSTIGYATLPASGSDPAAGTTLTVAGWGTTSENSNSLPSTLRKVSVPVVARATCDSDYDGEISNNMFCAAVAAGGKDSCSGDSGGPIIDPSGTLVGVVSWGQGCAERGFPGVYTRLGNYVSFINSNRG
modifications: H182 trypsin-like protease
[2]; Table 11, free enzyme seed treatment 2 fl. oz. per unit of seed (ILEVO 0.15 mg active ingredient per seed), soybean P18A98X, 3 weeks after inoculation
  Average cysts per g of root tissue: 18.6 cysts per g of root tissue

B3: Pseudomonas sp. esterase free enzyme concentrate (SEQ ID NO: 248): free enzyme concentrated in an Amicon Ultra 4K filter unit, 4× volumetric concentration (protein, listed as Pseudomonas sp.)
chain: MTEPLILQPVKPADACVIWLHGLGADRYDFLPVAEALQEILLSTRFVLPQAPTRPVTINGGYAMPSWYDIKAMSPARAIDRDELEASADRIIELIEEQRSSGIDASRIFLAGFSQGGAVVYHTAFLKWQGPLGGVLALSTYAPTFSDELELSASQQRIPVLSLHGQFDNVVQNSMGRTAYEYLKAHGVTVTWQEYPMEHEVLPEEIRDIGTWLSERLR
modifications: concentrated
notes: free enzyme concentrated in an Amicon Ultra 4K filter unit, 4× volumetric concentration
[2]; Table 16
  % Comparison to Control (figure in parentheses): −25%
[2]; Table 16, free enzyme or 4x concentrate seed treatment, soybean 2830E3
  Average cysts per g of root tissue: 182.1 cysts per g of root tissue

B4: Bacillus thuringiensis Lipase 1 (SEQ ID NO: 250): Bacillus thuringiensis Lipase 1 (protein, listed as Bacillus thuringiensis)
chain: YGFVSGVNDVLNPKASNLIKKTDVVAKEKKKTGTLQIVSLGDSLTRGVGDKEGIGYVGRMKEDLQKDYKQKIALTNLAVSGAKMPDLLKQIESNGAQYSIKQADVIVLTIGGNDLFPGWESLGKIDLETYRPDTETFQNEAKKIIEEIRKLNTDSPIFWLGLYNPFEDVEDLKGSSNIVVDWNASLEKLALNDKNVYITPTFDLFQNRGKDLLYSDHFHPNEVGYTYMAERLVQNVVSKLKLEQGGVK
[2]; Table 19
  % Comparison to Control (figure in parentheses): −25%
[2]; Table 19, free enzyme seed treatment, soybean 2830E3
  Average cysts per g of root tissue: 332.0 cysts per g of root tissue

B5: Chitinase (SEQ ID NO: 185): recombinant chitinase from Akanthomyces lecanii; Acidic Chitinase 1 (Chit1) (protein, listed as Akanthomyces lecanii)
chain: MAKCTSPDRKCPAPLIDAPINSFMTDGWADTDIHWEGDSWNDSGTNIYGCLKQLNILKKHNRNFKVLLSIGGWTYSSNFPAPASTPEGRDTFAKSCVELVKNLGFDGIDIDWEYPKTAEEAGHFVELLAEVRKQLDEYSARAANNYHFELSVACPAGPDNFQKLNISGMDAYLDFWNLMAYDYAGSWDKNSGHQANLYPCKDAPGCTPFSTVAAVDYYTSNGVSPDKLVLGMPLYGRAFENCDGIGQPFQGVGQGTWEQGVYDYKKLPLEGAEEHKDDDSCATYCHNAESRTLVTYDTPELAKTKADFIKERGLGGGMWWESSADKAGDDSLIQVVVSELGGPEALKQQQNCISYPETKYDNLRDGLPDN
modifications: Acidic Chitinase 1 (Chit1-H195)
[3]; Table 47, chitinases, rate in mU/mL diet column
  Dead Larva: 2
[3]; Table 47
  Adult: 1
  Early Pupa: 8
  Larva Stage I: 2
  Larva Stage II: 2
  Late Pupa: 17
[1]; [6]
  Larva Stage I: 4
  Larva Stage II: 5
  Larva Stage III: 8
  Larva Stage IV: 8
[1]; Table 48, chitinases, Fall armyworm, number of individuals of n = 32, DSO bioassay, dose per treatment in mU/mL Diet
  Dead Larva: 7

B6: H6-pnbA (SEQ ID NO: 94): recombinant six-histidine tagged esterase pnbA from Bacillus subtilis (protein, listed as Bacillus subtilis)
chain: MTHQIVTTQYGKVKGTTENGVHKWKGIPYAKPPVGQWRFKAPEPPEVWEDVLDATAYGSICPQPSDLLSLSYTELPRQSEDCLYVNVFAPDTPSKNLPVMVWIHGGAFYLGAGSEPLYDGSKLAAQGEVIVVTLNYRLGPFGFLHLSSFNEAYSDNLGLLDQAAALKWVRENISAFGGDPDNVTVFGESAGGMSIAALLAMPAAKGLFQKAIMESGASRTMTKEQAASTSAAFLQVLGINEGQLDKLHTVSAEDLLKAADQLRIAEKENIFQLFFQPALDPKTLPEEPEKAIAEGAASGIPLLIGTTRDEGYLFFTPDSDVHSQETLDAALEYLLGKPLAEKVADLYPRSLESQIHMMTDLLFWRPAVAYASAQSHYAPVWMYRFDWHPKKPPYNKAFHALELPFVFGNLDGLERMAKAEITDEVKQLSHTIQSAWITFAKTGNPSTEAVNWPAYHEETRETLILDSEITIENDPESEKRQKLFPSKGE
modifications: Esterase (pnbA)
[1]; [4]
  Larva Stage I: 0
  Larva Stage II: 0
  Larva Stage III: 15
  Larva Stage IV: 17
[1]; [5]
  Dead Larva: 0

B7: Lipase: lipase of Table 46, not further identified; probably Lipase (SEQ ID NO: 76) (protein, listed as Bacillus thuringiensis)
chain: MRLMRRCVALLIVFFIMAPMISTNVRAGVVKELKTGFPDQEVFTPGEWFLGQKPANYDENKPPILFVQGRNGNADSWYGKTVYHDINDMYDYALKAGYQTVFIQLYDAAGKGSASQWDNGKLLAQKLEEIYNHFGKKVNIVAHSKGGIDTQAALVGYGANRFVGNVITLATPHHGSNLADLSYSWWAGWLASILGQKDDGTYSLQMGEMAKFRSTIDNNPAAKLNRYYTVTGTSWGPVFSALSMGGLYLSSYGSNDGLVNECSAKLPYGTHLFTDSRFDHDNIRKGSAVFARIEPYLRTANVPVPALVASSTSSNENIEQLNTTSNQSILGGELPQNQWIEQTVAVDKKAEGIVSILTASSDVEVQMISPKGKVYTNKDSVITTGEGESFFGGATIRTFKFDKMDVGEWKVKMMTKQSKDAYLVVSDYKTGAPFVLQMPTKVKANKSEYKLKKSPVAPEMKGDLSITVRVVNKEGKLVSEFNELQNVNNNTFTGALKNIKQPGVYNVTMDIKGMNKEGKSYSRTIVKSVYVEK
modifications: Lipase (Lip1 H192)
[1]; Table 46, lipases, number of individuals, n = 32, 7 days
  Dead Larva: 5
[1]; [7]
  Larva Stage I: 2
  Larva Stage II: 10
  Larva Stage III: 15
  Larva Stage IV: 0

B8: Chitinase C (SEQ ID NO: 249): Chitinase C (protein, listed as Bacillus thuringiensis)
chain: DSPKQSQKIVGYFPSWGVYGRNYQVADIDASKLTHLNYAFADICWKGKHGNPSTHPDNPNKQTWNCKESGVPLQNKEVPNGTLVLGEPWADVTKSYPGSGTTWEDCDKYARCGNFGELKRLKAKYPHLKTIISVGGWTWSNRFSDMAADEKTRKVFAESTVAFLRAYGFDGVDLDWEYPGVETIPGGSYRPEDKQNFTLLLQDVRNALNKAGAEDGKQYLLTIASGASQRYADHTELKKISQILDWINIMTYDFHGGWEATSNHNAALYKDPNDPAANTNFYVDGAIDVYTNEGVPVDKLVLGVPFYGRGWKSCGKENNGQYQPCKPGSDGKLASKGTWDDYSTGDTGVYDYGDLTANYVNKNGFVRYWNDTAKVPYLYNATTGTFISYDDNESMKYKTDYIKTKGLSGAMFWELSGDCRTSPKYSCSGPKLLDTLVKELLGGPINQKDTEPPTNVKNIIVTNKTSSSVQLSWTASTDNVGVTEYEITAGEEKWSATTNSITIKNLKPNTEYTFSVIAKDASGNKSHPTALTVKTDEANTTPPDGNGTATFSVTSNWGSGYNFSIIIKNNGTIPIKNWKLEFDYSGNLTQVWDSKISSKTNNHYVITNAGWNGEIPPGGSITIGGAGTGNPAELLNAVISEN
[2]; Table 18
  % Comparison to Control (figure in parentheses): −22%
[2]; Table 18, free enzyme seed treatment
  Average cysts per g of root tissue: 45.7 cysts per g of root tissue
